T1: Brr2^C-Sec63 (human, UniProt O75643 1840-2136)
T1 sequence (looked up): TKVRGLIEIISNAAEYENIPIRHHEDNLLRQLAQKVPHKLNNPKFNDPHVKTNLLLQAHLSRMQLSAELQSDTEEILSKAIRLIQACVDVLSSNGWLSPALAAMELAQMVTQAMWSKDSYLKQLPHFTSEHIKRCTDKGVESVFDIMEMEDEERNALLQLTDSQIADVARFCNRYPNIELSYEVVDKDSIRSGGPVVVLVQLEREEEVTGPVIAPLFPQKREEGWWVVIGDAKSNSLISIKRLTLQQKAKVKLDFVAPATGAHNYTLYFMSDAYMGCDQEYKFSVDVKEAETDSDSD

T2: Brr2^C-Sec63 pre-incubated with FBP21^116–376 (human | , UniProt O75643 1840-2136; O75554 116-376)
T2 sequence (looked up) 1: T1 sequence (looked up)
T2 sequence (looked up) 2: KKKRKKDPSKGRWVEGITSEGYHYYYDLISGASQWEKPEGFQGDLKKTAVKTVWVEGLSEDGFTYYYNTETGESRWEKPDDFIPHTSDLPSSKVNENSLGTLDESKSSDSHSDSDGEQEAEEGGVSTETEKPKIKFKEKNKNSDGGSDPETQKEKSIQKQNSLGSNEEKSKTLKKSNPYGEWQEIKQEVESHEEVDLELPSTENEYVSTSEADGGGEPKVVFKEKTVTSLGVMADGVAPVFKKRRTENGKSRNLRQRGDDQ

B1: FBP21^326–376 (domain or fragment, UniProt O75554 326-376, looked up)
chain: EADGGGEPKVVFKEKTVTSLGVMADGVAPVFKKRRTENGKSRNLRQRGDDQ
B2: FBP21^276–376 (domain or fragment, UniProt O75554 276-376, looked up)
chain: NSLGSNEEKSKTLKKSNPYGEWQEIKQEVESHEEVDLELPSTENEYVSTSEADGGGEPKVVFKEKTVTSLGVMADGVAPVFKKRRTENGKSRNLRQRGDDQ
B3: FBP21^116–376 (domain or fragment, UniProt O75554 116-376, looked up)
chain: T2 sequence (looked up) 2
B4: FBP21^116–376 pre-incubated with SmB peptide (complex)
chain: T2 sequence (looked up) 2
peptide: GTPMGMPPPGMRPPPPGMRGLL
B5: FBP21^200–376 (domain or fragment, UniProt O75554 200-376, looked up)
chain: HTSDLPSSKVNENSLGTLDESKSSDSHSDSDGEQEAEEGGVSTETEKPKIKFKEKNKNSDGGSDPETQKEKSIQKQNSLGSNEEKSKTLKKSNPYGEWQEIKQEVESHEEVDLELPSTENEYVSTSEADGGGEPKVVFKEKTVTSLGVMADGVAPVFKKRRTENGKSRNLRQRGDDQ
B6: FBP21^200–376 K357E/R359E (domain or fragment, UniProt O75554 200-376, looked up)
chain: B5 chain with K158E, R160E
B7: FBP21^200–376 K358A/R360A (domain or fragment, UniProt O75554 200-376, looked up)
chain: B5 chain with K159A, R161A

What all share (assay): ITC
(In general: ITC needs no label: the signal is the heat of the interaction.)

The target in experiment [1] is T1, Brr2^C-Sec63.
Experiment [2] has as its target T1, Brr2^C-Sec63. The source holds these as a separate data set.
The target of experiment [3] is B3.
Experiment [4] concerns the target T2, Brr2^C-Sec63 pre-incubated with ….
Experiment [5] deals with T1, Brr2^C-Sec63. This is another data set of the same source.

Numbering of substitutions follows the chain as printed. Numbers in names are those of the source. Read-outs that look alike come from different tables or passages of the source.

A word on the Kd: it is the concentration at which binding is half-saturated. Read a high Kd as weaker binding. With KRFKR [positively charged control peptide KRFKR], the equilibrium dissociation constant (Kd) in experiment [1] was 27.3 ± 3.01 µM. The molecule GVAPVFKKRRTENGKSRNLR [peptide 58] had a Kd in experiment [2] of 1.34 ± 0.19 µM. Molecule B1 showed an equilibrium dissociation constant (Kd) in experiment [1] of 0.11 µM. Consider GTPMGMPPPGMRPPPPGMRGLL [SmB-derived peptide], for which the values for the Kd in experiment [3] and in experiment [4] were 16.8 ± 3 µM and 14 ± 0.8 µM, respectively. By stoichiometry N is commonly meant a count of units in the complex or per binding partner. GVMADGVAPVFKKRRTENGK [peptide 57]: in experiment [1], the dissociation constant (Kd) is 27.5 µM and the “stoichiometry N” value worked out at 1. B2: in experiment [1], the Kd worked out at 0.298 µM and the “stoichiometry N” value stood at 1. Molecule FKKRR [core binding motif of peptide 57, ^356FKKRR^360] returned a dissociation constant Kd in experiment [1] of 20 ± 1.1 µM. As for GKKRR [positively charged control peptide GKKRR], in experiment [1], the dissociation constant (Kd) worked out at 37 ± 5.99 µM.

As for B3, the equilibrium dissociation constant (Kd) in experiment [1] amounted to 0.275 ± 0.106 µM. In turn, B4 registered a Kd in experiment [5] of 0.194 ± 0.014 µM. As to B5, in experiment [1], binding was characterised by a dissociation constant (Kd) of 0.125 µM and the “stoichiometry N” value stood at 1. Molecule B6 registered a Kd in experiment [1] of 27.8 ± 0.9 µM. The molecule B7 registered a Kd in experiment [1] of 2.04 ± 0.37 µM. Compared with the last molecule, the Kd is about 14-fold lower.
